Drawing on patent publication US8865473B2, “Luminescence detecting apparatuses and methods” (Applied Biosystems, LLC, priority 1999, dated 2014), this text covers EC50 for 1 substance.

As a reminder, the pEC50 is the EC50 on a negative log10 scale, so that one unit is a factor of ten.

pEC50: −log10 of the molar value.

The target in the assay is T1, Orexin 2 Receptor (Homo sapiens, UniProt O43614).
T1 construct: host or cells: CHO cells co-expressing aequorin (CHO-Aeq-OX2-A2)
T1 sequence (O43614 1-444): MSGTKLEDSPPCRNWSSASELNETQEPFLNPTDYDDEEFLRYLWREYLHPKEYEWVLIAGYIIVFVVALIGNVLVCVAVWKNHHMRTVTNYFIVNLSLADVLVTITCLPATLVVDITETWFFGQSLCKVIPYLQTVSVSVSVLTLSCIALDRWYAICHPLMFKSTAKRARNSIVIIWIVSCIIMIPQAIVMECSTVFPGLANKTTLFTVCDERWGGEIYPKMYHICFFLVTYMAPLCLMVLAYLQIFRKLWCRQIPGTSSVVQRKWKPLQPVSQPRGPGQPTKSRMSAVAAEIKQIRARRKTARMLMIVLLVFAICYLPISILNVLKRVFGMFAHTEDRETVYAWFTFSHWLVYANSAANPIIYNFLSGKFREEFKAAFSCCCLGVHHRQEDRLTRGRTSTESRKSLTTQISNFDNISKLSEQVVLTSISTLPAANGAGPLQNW
The assay is described as follows: Aequorin luminescence agonist assay in CHO-Aeq-OX2-A2 cells on NorthStar. The class given is cell-based. As to conditions: coelenterazine h +/- 0.6 μM BAPTA-AM 4 hours, light integrated 20 seconds, unchanged in the presence of BAPTA-AM, read-out: reported EC50 for Orexin B. Here is the method: CHO-Aeq-OX2-A2 cells (Euroscreen) were loaded with coelenterazine h+/−0.6 μM BAPTA-AM for 4 hours. The peptide agonist Orexin B was injected into the wells, and the emitted light was integrated for 20 seconds on the NorthStar™.

As to Orexin B, the pEC50 is 9.12.
